Laboratory results reported in US20230090114A1, “METHODS FOR PROMOTING WEIGHT LOSS” (89BIO LTD., priority 2020, published 2023).

Key:
[1] = Total spontaneous activity and rearing (METABOpack sessions); assay type: in vivo, CD-1 mice; conditions: T2; WD; 0.3 and 3 mg/kg; vs Liraglutide
Procedure: Horizontal spontaneous activity and rearing behavior were recorded every second by the Physiocage System. The analysis was performed by plotting data every 30 minutes in order to obtain the kinetic of the behaviors. For each mouse, the sums of the activity and rearing events were calculated for each nycthemeral phase (Diurnal period or DP; Nocturnal period or NP and Whole Day or WD). The means per nycthemeral phase were then calculated for each group for statistical comparisons.

[2] = Organ/tissue weights on T28; assay type: in vivo, CD-1 mice; conditions: for eWAT weight: T28
Procedure: On T28, after 4 hours of fasting, a terminal sampling of blood and organs/tissues was performed on anaesthetized mice (by a mixture of Ketamine/Xylazine, 80/10 mg/kg). A large blood sample was collected by cardiac puncture, and the following organ/tissues were collected, weighed, snap-frozen in liquid nitrogen and stored at −80° C. for further analyses: […]

[3] = Diet-induced NASH model in mice; assay type: in vivo; conditions: 0.3 mg/kg, 3 times/week
[4] = Indirect calorimetry: VO2, VCO2, EE, RER (METABOpack sessions); assay type: in vivo, CD-1 mice
Procedure: The Physiocage System allows recording the O2 consumption (VO2) and the CO2 production (VCO2) by indirect calorimetry. For each animal, both VO2 and VCO2 were recorded for 3 min every 30 minutes and the mean values were calculated by the system.
Energy Expenditure (EE) and Respiratory Exchange Ratio (RER) were calculated with formulas that are based on VO2 and VCO2 values: […]
Analysis of these parameters was performed as follows: for each mouse, the mean values were calculated from the corresponding recordings for each nycthemeral phase (Diurnal Phase or DP, Nocturnal Phase or NP and Whole day or WD). The means per nycthemeral phase were then calculated for each group for statistical comparisons.

[5] = Body weight of CD-1 mice, 4-week SC treatment; assay type: in vivo
Procedure: Detailed Methods: Adult male CD-1 mice at 6 weeks of age at receipt (with an expected weight of 35-39 g) were purchased from Charles River (St Germain sur l'Arbresle, France). From receipt, mice were singly housed and allowed ad libitum access to water and to a control diet (pellet A04; SAFE, Villemoisson-sur-Orge, France), unless otherwise noted (see Section D.). Throughout the study, animals were maintained in an ambient temperature (22.0±1.0° C.) and humidity (40-50%) controlled room on a 12-h light/12-h dark cycle (9:00 PM: Light ON/9:00 AM Light OFF).
At receipt and until the end of the experiment, all animals fed the control diet (A04 pellet). Following the acclimation and habituation periods, forty-eight (48) mice were subcutaneously treated either with vehicle, liraglutide (as the benchmark) or 89BIO-100 (3 different doses tested).
From T1 to T28, vehicle and 89BIO100 (at the 3 different doses) were administrated by subcutaneous (SC) injection three times a week, while the treatment with liraglutide was administrated by subcutaneous route, twice a day, every day. It was important to notice that the first dosing was done just before the […] (at 9:00 AM) and the second dosing was done 8 hours after the first one (at 5:00 PM). Throughout the treatment period, FI and BW were daily measured.
General Methods: Naive CD-1 mice were treated subcutaneously (SC) for 4 weeks at ambient temperature with BIO89-100 at doses of 0, 0.3, 1.0 and 3.0 mg/kg (3qW×4 weeks) or with liraglutide at 0.2 mg/kg (BID×4 W; SC). BW and FC were measured daily throughout the treatment period. To investigate the impact of BIO89-100 on energy expenditure, the respiratory exchanges (VO2 and VCO2) were recorded during 3 distinct sessions of METABOpack™, a multiparametric approach allowing an automated and simultaneous recording of FC, water intake, respiratory exchanges and spontaneous activity. Meal pattern analysis was conducted on the high-resolution recordings of FC. The body composition (fat, lean and fluid masses) was analyzed 3 times during the study by the mean of Time-Domain Nuclear Magnetic Resonance (TD-NMR).

[6] = T1, whatever the dose, vs vehicle
[7] = T2, DP and WD, whatever the dose, vs Liraglutide
[8] = T2, whatever the dose, vs vehicle
[9] = T14, DP, 3 mg/kg, vs Liraglutide
[10] = T14, NP and WD, whatever the dose, vs Liraglutide
[11] = T14, NP and WD, whatever the dose, vs vehicle
[12] = T14, between the three 89BIO-100 groups
[13] = T15, NP and WD, 1 and 3 mg/kg, vs vehicle
[14] = T15, between the three 89BIO-100 groups
[15] = T15, whatever the phase, 1 and 3 mg/kg, vs Liraglutide
[16] = T27, NP, whatever the dose, vs vehicle
[17] = T27, WD, 0.3 and 1 mg/kg, vs Liraglutide
[18] = T27, WD, 0.3 and 1 mg/kg, vs vehicle
[19] = T27, between the three 89BIO-100 groups

B1: Mutant FGF21-GalNAc-SA-PEG-20 kDa (conjugate)
chain: MHPIPDSSPLLQFGGQVRQRYLYTDDAQQTEAHLEIREDGTVGGAADQSPESLLQLKALKPGVIQILGVKTSRFLCQRPDGALYGSLHFDPEACSFRELLLEDGYNVYQSEAHGLPLHLPGNKSPHRDPAPRGPARFLPLPGLPPALPEPPGILAPQPPDVGSSDPLSMVGPTQGASPSYAS
[1]
  total spontaneous activity: higher total spontaneous activity
[2]; 89BIO-100 treated mice (summary)
  epididymal white adipose tissue (eWAT) weight: strongly reduced
[2]; 1 and 3 mg/kg, vs vehicle
  eWAT weight: significant decrease in eWAT weight
[2]; among the three 89BIO-100 groups
  eWAT weight: no significant difference
[3]
  efficacy in Diet-induced NASH model: effective
[4]; T1, NP and WD, whatever the dose, vs Liraglutide
  RER: increase in RER
[4]; T1, NP, whatever the dose, vs Liraglutide
  VCO2: increase in VCO2
[4]; T1, between 89BIO-100 groups
  RER: no significant difference
[4]; T1, between all 89BIO-100 groups
  VCO2: no significant difference
[4]; [6]
  RER: No significant difference
  VCO2: No significant difference
[4]; [7]
  EE: increase in EE
  VO2: increase in VO2
[4]; T2, between 89BIO-100 groups
  EE: no significant difference
[4]; T2, between the three 89BIO-100 groups
  VO2: no significant difference
[4]; [8]
  EE: No significant difference
  VO2: No significant difference
[4]; [9]
  EE: increased
  VO2: increased
[4]; T14, DP, 3 mg/kg, vs vehicle
  EE: increased
  VO2: increased
[4]; [10]
  EE: increase in EE
  RER: decrease in RER
  VO2: increase in VO2
[4]; [11]
  EE: increased
  VO2: increased
[4]; T14, NP, whatever the dose, vs Liraglutide
  VCO2: increase in VCO2
[4]; T14, NP, whatever the dose, vs vehicle
  VCO2: increased
[4]; T14, WD, 1 and 3 mg/kg, vs Liraglutide
  VCO2: increased
[4]; T14, WD, 1 and 3 mg/kg, vs vehicle
  VCO2: increased
[4]; [12]
  EE: no significant difference
  VCO2: no significant difference
  VO2: no significant difference
[4]; T14, whatever the dose, vs vehicle
  RER: No significant difference
[4]; T15, DP, 1 mg/kg, vs vehicle
  EE: increased
  VCO2: increased
  VO2: increased
[4]; [13]
  EE: increased
  VCO2: increased
  VO2: increased
[4]; [14]
  EE: no significant difference
  VCO2: no significant difference
  VO2: no significant difference
[4]; [15]
  EE: increase in EE
  VCO2: increase in VCO2
  VO2: increase in VO2
[4]; T27, NP and WD, 0.3 and 1 mg/kg, vs vehicle
  VCO2: increased
[4]; T27, NP and WD, dose of 1, vs Liraglutide
  VCO2: increase in VCO2
[4]; T27, NP, 1 and 3 mg/kg, vs Liraglutide
  VO2: increase in VO2
[4]; T27, NP, dose of 1, vs Liraglutide
  EE: increase in EE
[4]; [16]
  EE: increased
  VO2: increased
[4]; [17]
  EE: increased
  VO2: increase in VO2
[4]; [18]
  EE: increased
  VO2: increased
[4]; [19]
  EE: no significant difference
  VCO2: no significant difference
  VO2: no significant difference
[4]; concluded from energy expenditure effects
  thermogenesis: increased
[4]; summary, second (T14/T15) and third (T27) METABOpack session, vs Vehicle
  energy expenditure: increase in energy expenditure
[5]; 0.3 mg/kg, vs Liraglutide, T2-T11, T13-T16
  delta body weight: increase in delta body weight
[5]; 0.3 mg/kg, vs Liraglutide, T2-T24 and T26
  body weight: greater body weight
[5]; 0.3 mg/kg, vs vehicle, T3-T6
  delta body weight: increase in delta body weight
[5]; 1 mg/kg, vs 0.3 mg/kg, T6-T21
  delta body weight: significant decrease in delta body weight
[5]; 1 mg/kg, vs Liraglutide, T2-T5
  body weight: greater body weight
[5]; 1 mg/kg, vs vehicle, T8-T21, T23, T24
  delta body weight: marked decrease in delta body weight
[5]; 3 mg/kg, vs 0.3 mg/kg, T5-T28
  delta body weight: marked decrease in delta body weight
[5]; 3 mg/kg, vs 1 mg/kg, T11, T12, T13, T15
  delta body weight: significant decrease in delta body weight
[5]; 3 mg/kg, vs 0.3 and 1 mg/kg, over treatment period
  body weight: reduced the body weight
[5]; 3 mg/kg, vs Liraglutide, T8-T13 and T25
  delta body weight: significant decrease in delta body weight
[5]; 3 mg/kg, vs Liraglutide, T11-T13
  body weight: lower body weight
[5]; 3 mg/kg, vs vehicle, T3 and T6-T28
  delta body weight: marked decrease in delta body weight
[5]; 3 mg/kg, vs vehicle, except T2, T3, T4
  body weight: lower body weight
[5]; 0.3 and 1 mg/kg, vs vehicle
  body weight: did not show any difference in body weight
[5]; 1 and 3 mg/kg, throughout treatment period (summary)
  body weight: lower body weight in dose-dependent manner
[5]; 1 and 3 mg/kg, vs Liraglutide, T2-T4
  delta body weight: increase in delta body weight
[5]; naive CD-1 mice, 0.3-3.0 mg/kg SC 3qW x 4 weeks, dose-dependent, up to
  decrease in BW: up to −13.8%
